Laboratory results taken from the nanobody polyreactivity screen of Harvey et al. (2022).

Test: yeast display, Sf9 membrane polyspecificity reagent, FACS + sequencing; frameworks hold sequencing errors
How it was run: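 Galactose induction of a Saccharomyces cerevisiae BJ5465 synthetic nanobody display library ran 36–48 hours. The cells were then stained for 1 hour at 4 °C with 10% biotinylated, detergent-solubilized Sf9 membrane reagent, pulled down on streptavidin microbeads and FACS-sorted into low and high (top ~1%) gates on expression and reagent-binding fluorescence. Labels for polyreactivity follow the gate of origin.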

Row | Sequence | polyreactivity (PSR sort gate)
1 | QVQLVESGGGLVQAGGSLRLSCAASGITFPYYVMGWYRQAPGKERELVAAISKSVGRTYYADSVKGRFTISRDNAKNTVYLQMNSLKPEDTAVYYCAAYSSYYVHRFQHYDYWGQGTQVTVSS | high polyreactivity
2 | QVQLVESGVGLVQAGGSLRLSWTASGRIFSWYAMGWYRQAPGKERELVADISWGTGSTYYADTVKGRFTISRDNAKHTVDLQMNSLKPEDTAVYYCAADPGYYYEYRRFYYWGQGTQVTVSS | high polyreactivity
3 | QVQLVESGGGLVQAGGSLRLSCAASGYTFGIYTLGWYRQAPGKERELVADISSTGTTKYADSVKGRFTISRDNAKYTVYLQMNSLKPEDTAVYYCAVRPFWYRMDYWGQGTQVTVSS | low polyreactivity
4 | QVQLVESGGGLVQAGGSLRLSCAASGSTFLVYAMGWYRQAPGKERELVADITSRGGSTYYADSVKGRFTISRDNAKNTVYLQMISLKPEDTAVYYCAARKRFVLFDYWGQGTQVTVSS | low polyreactivity
5 | QVQLVESGGGLVQAGGSLRLSCAASGSIFYHNPMGWYRQAPGKERELVAAITSRGGRTTYADSVKGRFTISRDNAKNTVYLQMNSLKPEDTAVYYCNAVYTGYSYISRVDYWGQGTQVTVSS | low polyreactivity
6 | QGQLVESGGRLVQAGGSLRLSCAASGFIFDAYAMGWYRQAPWKERELVAAIDYSGGNTYYADSVTGRFTISRDNAKNTVYLQMNSLTPEDTAVYYCNADYAGSFWSREYDYWGQGTQVTVSS | low polyreactivity
7 | QVQLVESGGGLVQAGRSLRLICAASGFTSHVYAMGWYRQAPGKERELVAAISSGSSTYYADSVKGRFTISRDNAKNTVYLQRNSLKPEDTAVYYCATTHKTLRRYESWGQGTQVTVSS | low polyreactivity
8 | QVQRVESGGGLVQAGGSLRLSCAGTGSIFTSNAMRWYRQARGNERELVASISYISGGTYYADSVKGRFTISRDNAKNTVYLQMNSLKPEDTAVYYCAAEQTWGSCQYDPRTYDYWGQGNQVTVSS | low polyreactivity
9 | QVQLQESGSGLVQAGGSLRLSCAASGNISHYNDMGWYRQAPGKEREPVATINSGSITYYADSVKGRFTISRDNAKNTVYLQMNSLKPEDTAVYYCAVKQHGYFYLDYWGQGTQVTVSS | high polyreactivity
10 | QVQLVESGGGLVQAGGSLRLSCAASGSIFQAYAMGWYRQAPGKERELVAAITASGTRTYYADSVKGRFTISRDNAQNTVYLQMNSLKPEDTAVYYCAAGTYRWGFGVRSAMDYWGQGTQVTVSS | high polyreactivity
11 | QFQLVESGGGLVQAGGSLRLSCAASGRTFGRYAMGRDRPAPGKERELVAAINSGGSTYYADSVKGRFTISRDNAKNTVYLQMMSLKPEDTAVYYCDTQWTWKLGYWGQGTQVTVSS | high polyreactivity
12 | QVQLVESGGGLVQARVSLRLSCAASGRIYGYTMGWYRQAPGKERELVAAITRNGGSTYYADSVKARFTISRDNSKNTVSLQMNSLKPEDNAVYYCAARNAFGTYYAWGQGTQVTVAS | high polyreactivity
13 | QVQLVESGGGLVQAGGSLRLSCAASGTNVMGWYRQAPGKERELVAAISGSGGSTYYADSVKGRFTISRDNAKNSVYFQMNSLKPEDSAVYYCAADSIQYTARPYDYWGQGTQVTVSS | low polyreactivity
14 | QDQLVESGGGLVQAGGSLRLSCAASGLIFYGNAMGWYRQAPGQERELVADISGSSVRTYYADSVKGRFTISRDNAKNTVCLQMNSLKPEDTAVYYCAATYGYLYTGLSRYDYWGQGTQVTVSS | low polyreactivity
15 | QVQLVESGGGLVQAGGSLRLSSASSGSTFPGYTMRWYRPAPGKARELVAYITASDSSTYYADSEKGRFTISRDNAKNTVYLQINSLKPEDTAVYYSAKPPRHTWSFVDYRYEYWGQGTQGTVSS | low polyreactivity
16 | QDQHVETGGGLVQAGGSLRLSCAASGSIFFLYMGWYRKAHGKETELVATISSGGSTNYADSVMGRFTISRDNAKHTVYLQMNSLKPVATAVYYFNARGSERLDTYSLYDYWGQGTQVTVSS | low polyreactivity
17 | QLQLVESGGCLVQAGGSLRLSCAASGIIFVVNDMGWYRQAPGNARELVADISDSGGSTNYADSVKGRFTISRDNAKNSVYLQMNSLKPEDTAVYYCAADSADPTEYDYWGQGTQVTLSS | low polyreactivity
18 | QVQLVESGGGLVQAGGSLRLSCAASGFTISLNTMGWYRQAPGKERELVAAINSGDSTYADSVKGRFTISRDNAKNTGYFQMNSLKPEDTAVYYCNADPDWWYPYFYWGQGTQVTVSS | low polyreactivity
19 | QVQLVESGGGLVQAGGSLRLSCAASGNIFSRNAMGWYRQAPGKERELVASIDNSTSGTYYADSVKGRFTISRDNAKNTVYLQMKSLKPEDTAVYYCAATPLVDGSSIPREGDYWGQGTQVSVSS | low polyreactivity
20 | QVQLVESGGGLVQAGGSLRLSCAASGRIFFVNAMGWSRQAPGKERELVAAISRGGSTNYADSVKGRFTISRDNAKNTVYLQMNSLKPEDTAVYYCNADGSSYWYPVPLDGGDYWGQGTQVTVSS | low polyreactivity
21 | QVQLVESVGGLVQAGGSLRLSCASSGYIFAYYGMGWYRQAPGNERELVAAISWSGGSTDYADSVKGRFTISRDNAKNTGYLQMNRLKPEDTAVYYCATRKYADRESDYWGQVTQVTVSS | high polyreactivity
22 | QVQLVESCGGLVQAGGSLRLSCAASGRTFTDYVMGWYRQAPGKERELVAGIRRSGGTYYADSVKGRFTISRDNAKNTVYLQMNSLKPEDTAVYYCAAPVQTGPDPEYDYWGQGTQVTVSS | low polyreactivity

Row | Sequence | polyreactivity (PSR sort gate)
23 | QVQLVESGGGLVQAGGSLRLSCAASGSIFYIYAMGWYRQAPGKETELVASISRSGGSTYYADSVKGRFTISRDNAKNTVYLQMNSLKPEDTAVYYCAAVITFYRYPPGETYYYWGQGTQVTVSS | high polyreactivity
24 | QVQLVESGGGLLQAGGSLRLSCAASGIIFHYNAMGWYRQAPWKQRELVAAITSTDNTNYADSVKGRFTISRDNAKNTVYLQMNSLIAEATAVYYCNASVGRDSAYDYWGQGTQVTVSS | low polyreactivity
25 | QVQLVESGGGLVQAGGSLRLSCAASGRIFAGYGMGWYRQAPGKERELVAAISSGGSTYYADSVKGRFTISRDNAKNTVYLQMTSLKPEDTAVYDCATDGQSVPDDYYQNVDYDYWGQGTQVAVSS | low polyreactivity
26 | QVQLVESGGGLVQAGGSLRLSCAASGSTLLTYTMGWYRQAPGKESELVASITTSGGSTYYADSVKGRFTISRDNAKNTVYLQMNSLKPEDTAVYYWGQGTQVTVSS | low polyreactivity
27 | QVQLVESGGGLVQAGGSLRLSCAASGSILWLNAMGWYRQAPGKERELVADITRGGSTYYADSVKGRFTISRDNAKNTVYLQMNSLTPEDTAVYYCAADAYTCQIPYYYFEHYYWGQGTQVTVSS | high polyreactivity
28 | QVQLVESGGGLVQAGGSLRLSFAASGRTFYGYAMGWYRQAPGKERELVASIRQSAGRTYYADSVKGRFTISRDISKNTVYLVMNSLKPEDSAVYYCAASIFLRSFYQQGNYWGQGTHVTVSS | high polyreactivity
29 | QVQLVESGGGLVQAGGSLRLSCAASGRILYRYDMGWYRQAPGKERELVAAISRRGGSTTYADSVKGRFTISRDNAKNTVYLQMNSLKPEDTAVYYCATDYKYAAPTVIESDYWGQGTEVTVSS | high polyreactivity
30 | QVQLIESGGGLVQAGGSLRLSCAASGYTFGAYAMGWYRQAPGKERELVAGITFIGGSTYYADSVKGRFTISRDNAKNTVYLQMNSLKPEDTAVYYCAAPIAFGYRGTVAKYGYWGQGTQVTVSS | low polyreactivity
31 | QVQLVESGGGLVQAGGILRLSCASSGRTFKSYTMGWYRQAPGKERELVASISVSGGRTYYADSVKGRFTISRDNAKNTVYLQMNSLKPEDTAVYYCAAYYVHYRPVRGYDYWGQGTEVTVSS | high polyreactivity
32 | QVQLVDSGGGLVQAGGSLRLSCAASGSILESNVMGWYRQAPGKERELVASISSSGDSTYADSVKGRFTISRDNAKNTVYLQMNILKPEYTAVYYCAADRWYWTYALYYWGQGTQVTVSS | low polyreactivity
33 | QVQLVESGGGLVQAGGSLRLSCAASGSTFVKYAMGWYRQAPGKERELVAVISSAGSTNYADSVKGRFTISRDNAKNTVYLQMNSLKPEDTAVYYCNAEPTTPYWDYWAYEDDYWGQGTQVTVSS | low polyreactivity
34 | QVQLVESGGGLVQAGGSLRLSCAASGRTIPIYAMGWYRQEPGKERYLVAAITYSGGSTYYADSVKGRFTISRDNAKNSVYLQMNSLKPEDTAVYYCAVDGTKPYWHQRYVYWGQGTQVTVSS | low polyreactivity
35 | QVQLVESGGGLVQAGGSLRLSCAASGSTSDINAMGWYRQAPGKERELVAVITFSGGSTNYADSVKGRFTISRDNAKNTVYLQMHSLKPEDTAVYYCNADTLTTTRRFNPYDYWGQGTQVTVSS | low polyreactivity
36 | QVQLVESGGGLVQAGGSLRLSCAASGSTFRRNAMGWYRQAPGKERELVAAISSGGGSTYYADSVKGRFTISRDNAKNTVYLQMNSLKPEVTAVYYCAAGYFGHYVEYYYWGQGTQVTVSS | high polyreactivity
37 | QVQRVESGGGLVLAGGSLRLSSAASGITFVRYAMGGYRQAPVKERELVAVISRGGITNYADSVMGRFTISRDNAKNTVYLQMNSLKPEDTAVYYCAVRARSYVRTYDYWGQGTQVTVSS | high polyreactivity
38 | QVQLVESGGGLVQAGGSLRLSCAASGRIFSYNTMGWYRQAPGKERELVAAISWSGGSTSYADSVKGRFTISRDNAKNTVYLQMNSLKPEDTAVYYCATGSKRNPFYRGNYWGQGTQVTVSS | low polyreactivity
39 | QVQLVESGGGLVQAGGSLRLSCAASGRTFSYYAMGWYRQAPGKERELVASINWSGGSTYYADSVKGRFTISRDNAKNTVYLQMNSLKPEDTAVYYCAADSWPFGYYYWGQGTQVTVSS | high polyreactivity
40 | QVQLVESGGGLVQAGGSLRLSCAASGRIFAQYAMGWYRQAPVKERELVAGIDRRGGSTYYADSVKGRFTISRDNAKNTVYLQMNSLKPEDTAVYYCAAYGTTGVYRGPGYDYWGQATQVTVSS | low polyreactivity
41 | QVQLVESGGGLVQAGGSLRLSSAASRRIFSEYAMGWNRPEPGKERELVAAISKSGGRTYYADSVKGRFTISRDNAKNTVYFQMNSLKPEETAVDYCNARAVYPAGYAYDYWGQGTQVTVSS | high polyreactivity
42 | QVQLVESGGGLVQAGGSLRLSCAASGSIFNLNAMGWYRQAPGKEREFVAGITYSAGRTYYADSVKGRFTISRDNAKNTVYLQMNSLKPEDTAVYYCAARIYSKFTSYGILDSWGQGTQVTVSS | high polyreactivity
43 | QVQLVESGGGLVQAGGSHRLSSAASGSILADNAMGWYRQAPGKERELVAAISLRGGRTYYADSVKGGFTISRDNAKNTVYLQMNSLKPEDTAVYYCAAVGSFHIVDYWGEGTQVTVSS | high polyreactivity
